Data published in patent US20190352404A1 (SUZHOU ALPHAMAB, published 2019).

B1: KN035 sdAb mutant 1 (VHH)
VHH: QVQLQESGGGSVQAGGSLRLSCAASGKMSSRRCMGWFRQAPGKERVGVAAIDSDGTTKYADSMKGRFTISKDNAKNTLDLQMNSLKPEDTAMYYCVADSFEDPTCTLVTSSGAFQYRGQGTQVTVSS
notes: Expressed in HEK293, IMAC purified; not shown: C-terminal His-tag
B2: KN035 sdAb mutant 2 (VHH)
VHH: QVQLQESGGGSVQAGGSLRLSCAASGKMSSRRCMGWFRQAPGKQRVGVATIDSDGTTRYVDSVKGRFTISKDNAKNTLDLQMNSLKPEDTAMYYCAADSFEDPTCTLVTSSGAFQYRGQGTQVTVSS
notes: not shown: C-terminal His-tag
B3: KN035 single domain antibody mutant m3 (VHH)
VHH: QVQLQESGGGLVQPGGSLRLSCAASGKMSSRRCMAWFRQAPGKERERVADVNPNSGGSIYNQRFKGRFTISQNNAKSTVYLQMNSLKPEDTAMYYCAADSFEDPTCTLVTSSGAFQYWGQGTQVTVSS
notes: not shown: C-terminal His-tag (obtained 'by the above method')

Legend:
[1] = molecular target: T1, hPD-L1-Fc (human, UniProt Q9NZQ7 20-239, limits assumed); experiment: BLI (Octet K2), hPD-L1-Fc on AHC sensor, sdAb variant in solution; against wild-type KN035
T1 construct: also called PDL1-Fc fusion protein; human PDL1 protein; not shown: Fc part

[2] = molecular target: T1, hPD-L1-Fc; experiment: competitive ELISA, hPD-L1-Fc coated, competitor hPD-1-hIgG-biotin 10 ug/ml; against wild-type KN035

T1 sequence (Q9NZQ7 other isoform, or with tags, fused parts or gaps limits assumed): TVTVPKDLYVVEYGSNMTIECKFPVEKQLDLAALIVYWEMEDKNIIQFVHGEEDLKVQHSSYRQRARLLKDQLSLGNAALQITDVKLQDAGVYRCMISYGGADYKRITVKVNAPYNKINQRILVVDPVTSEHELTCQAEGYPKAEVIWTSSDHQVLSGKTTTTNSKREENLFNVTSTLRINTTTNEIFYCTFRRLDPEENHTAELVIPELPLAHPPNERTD

Binder	KD/KD wt [1]	Relative blocking activity (EC50 wt/EC50 m × 100%) [2]
B1	1.21 ratio	80%
B2	1.73 ratio	71%
B3	2.01 ratio	91%
